Laboratory results taken from publication PMC11417369, “DNA sequence and chromatin differentiate sequence-specific transcription factor binding in the human malaria parasite Plasmodium falciparum”.
Numbering of substitutions follows the chain as printed.

T1: PF3D7_0420300 D1 (Plasmodium falciparum, UniProt Q8I1N6 1956-2015)
T1 sequence: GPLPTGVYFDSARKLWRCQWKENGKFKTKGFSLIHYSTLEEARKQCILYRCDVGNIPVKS

B1: CACACA_negctrl_site510 (dsDNA)
DNA 1: TAATATCTAAAAAATATATTTTTTATTTTTTATTAA
DNA 2: TTAATAAAAAATAAAAAATATATTTTTTAGATATTA
B2: CACACA_negctrl_site1331 (dsDNA)
DNA 1: AATATAATCTTTCAAAAGAAAAAGACTTCATGAAAA
DNA 2: TTTTCATGAAGTCTTTTTCTTTTGAAAGATTATATT
B3: CACACA_negctrl_site1550 (dsDNA)
DNA 1: TAAAATTAATAAAATATTTTCACTTAATATATATAA
DNA 2: TTATATATATTAAGTGAAAATATTTTATTAATTTTA
B4: CACACA_negctrl_site681 (dsDNA)
DNA 1: CACAAAGGTCTGAAATTTTAGGGGTGCCTGGGACTA
DNA 2: TAGTCCCAGGCACCCCTAAAATTTCAGACCTTTGTG
B5: CACACA_negctrl_site641 (dsDNA)
DNA 1: TCTTGACGAAGTAGAAGGATATATATATAAAAAAAA
DNA 2: TTTTTTTTATATATATATCCTTCTACTTCGTCAAGA
B6: CACACA_site8429 (dsDNA)
DNA 1: TAAGAAATAAATAGTACACACATAGACACCCACCCA
DNA 2: TGGGTGGGTGTCTATGTGTGTACTATTTATTTCTTA
B7: CACACA_negctrl_site219 (dsDNA)
DNA 1: GCAAAACATTTTTAAAATAAAAATAATAAAATATAT
DNA 2: ATATATTTTATTATTTTTATTTTAAAAATGTTTTGC
B8: CACACA_negctrl_site60 (dsDNA)
DNA 1: TTATAGGTTCTATACATATATTTATATATGTACAGA
DNA 2: TCTGTACATATATAAATATATGTATAGAACCTATAA
B9: CACACA_negctrl_site1320 (dsDNA)
DNA 1: TTTTAAAACAATGAGATTCCTTTCTTTTTTTCTTTT
DNA 2: AAAAGAAAAAAAGAAAGGAATCTCATTGTTTTAAAA
B10: CACACA_negctrl_site309 (dsDNA)
DNA 1: TTATTCCTTTTCCTTTTTTTTTTTTAACCAAAAAAA
DNA 2: TTTTTTTGGTTAAAAAAAAAAAAGGAAAAGGAATAA
B11: CACACA_negctrl_site609 (dsDNA)
DNA 1: GTATATATATATATATATATATATATATATATATAT
DNA 2: B11 DNA 1 with G1A, T36C
B12: CACACA_negctrl_site1522 (dsDNA)
DNA 1: TTTTTATGTTATCAAATAAATATAAATATAATTCAT
DNA 2: ATGAATTATATTTATATTTATTTGATAACATAAAAA
B13: CACACA_negctrl_site521 (dsDNA)
DNA 1: TAGTTCTTTTAATTTAGTATTATACAATATTGGAAA
DNA 2: TTTCCAATATTGTATAATACTAAATTAAAAGAACTA
B14: CACACA_site2373 (dsDNA)
DNA 1: ATGTTCTTTAAAACCACACACCCCCCAACCCCCCTC
DNA 2: GAGGGGGGTTGGGGGGTGTGTGGTTTTAAAGAACAT
B15: CACACA_negctrl_site1833 (dsDNA)
DNA 1: TAATATTTTTATTATTAGAATTGTATATGTTTAATA
DNA 2: TATTAAACATATACAATTCTAATAATAAAAATATTA
B16: CACACA_negctrl_site165 (dsDNA)
DNA 1: TCTCAAGTTGTTAAAAAATAAAAACAATAAATCTAA
DNA 2: TTAGATTTATTGTTTTTATTTTTTAACAACTTGAGA
B17: CACACA_negctrl_site1763 (dsDNA)
DNA 1: AAAAAAAAATATACATATATATATATATATATATAT
DNA 2: ATATATATATATATATATATATGTATATTTTTTTTT
B18: CACACA_negctrl_site930 (dsDNA)
DNA 1: ACATATATATATATATATATATATATATATTCTTAA
DNA 2: TTAAGAATATATATATATATATATATATATATATGT
B19: CACACA_negctrl_site232 (dsDNA)
DNA 1: AAACAAAATTTATTTCAAAGTTAATAATTTTTATGT
DNA 2: ACATAAAAATTATTAACTTTGAAATAAATTTTGTTT
B20: CACACA_negctrl_site285 (dsDNA)
DNA 1: TATTATGTCTAAAATAACATATTAATATATTATTTC
DNA 2: GAAATAATATATTAATATGTTATTTTAGACATAATA
B21: CACACA_negctrl_site1348 (dsDNA)
DNA 1: TTATTATCATCAAATCAAAAAATTCTTTTACCTGTT
DNA 2: AACAGGTAAAAGAATTTTTTGATTTGATGATAATAA
B22: CACACA_site8825 (dsDNA)
DNA 1: AAAAAAGATAATTATGCACACACACCCACCCACCCA
DNA 2: TGGGTGGGTGGGTGTGTGTGCATAATTATCTTTTTT
B23: CACACA_negctrl_site84 (dsDNA)
DNA 1: CACACTTTTTAAATTAACGCATTTCAAAAAAAATAT
DNA 2: ATATTTTTTTTGAAATGCGTTAATTTAAAAAGTGTG
B24: CACACA_negctrl_site10 (dsDNA)
DNA 1: AAATCACAAAAAAAAAAAAAAATATATATATATATA
DNA 2: TATATATATATATATTTTTTTTTTTTTTTGTGATTT
B25: CACACA_negctrl_site571 (dsDNA)
DNA 1: TTTGTAATAAACTACTTTTTTTTTTTTTTTTTTTTT
DNA 2: AAAAAAAAAAAAAAAAAAAAAGTAGTTTATTACAAA
B26: CACACA_negctrl_site1830 (dsDNA)
DNA 1: ATGGACATTTTATAAATCACAATGGATATTTTATAA
DNA 2: TTATAAAATATCCATTGTGATTTATAAAATGTCCAT
B27: CACACA_negctrl_site753 (dsDNA)
DNA 1: ATTTTTTTTTAATGCAATATATTTTGAAAATTTTAT
DNA 2: ATAAAATTTTCAAAATATATTGCATTAAAAAAAAAT
B28: CACACA_negctrl_site460 (dsDNA)
DNA 1: ATAATGTATTTATATATATATATATATTTTAATAAA
DNA 2: TTTATTAAAATATATATATATATATAAATACATTAT
B29: CACACA_negctrl_site979 (dsDNA)
DNA 1: ATGTAATTCTTTTACTTTTTTTTTTTTTTTTTTTTT
DNA 2: AAAAAAAAAAAAAAAAAAAAAGTAAAAGAATTACAT
B30: CACACA_negctrl_site245 (dsDNA)
DNA 1: TTTTTATTTTATAATATATTCCTTTTCCTTTCTTTC
DNA 2: GAAAGAAAGGAAAAGGAATATATTATAAAATAAAAA
B31: CACACA_negctrl_site214 (dsDNA)
DNA 1: TTTTTATTTTTATACATATAATATATTATGATTAAA
DNA 2: TTTAATCATAATATATTATATGTATAAAAATAAAAA
B32: CACACA_site6208 (dsDNA)
DNA 1: ATATAAATATGACACACACACAAAAAAAATAAAGAC
DNA 2: GTCTTTATTTTTTTTGTGTGTGTGTCATATTTATAT

Biological target: T1, PF3D7_0420300 D1
Test: gcPBM; about 25 ug protein; PBS, 1% milk, 0.2 mg/ml BSA, salmon testes DNA, 0.03% Triton X-100
Conditions: tags: N-terminal GST (pGEX-4T-1), kept; label: surface-attached array probe

| Binder | binding signal |
| --- | --- |
| B1 | 8.86 ln median PBM intensity, better of two orientations |
| B2 | 8.86 ln median PBM intensity, better of two orientations |
| B3 | 8.87 ln median PBM intensity, better of two orientations |
| B4 | 8.87 ln median PBM intensity, better of two orientations |
| B5 | 8.88 ln median PBM intensity, better of two orientations |
| B6 | 10.6 ln median PBM intensity, better of two orientations |
| B7 | 8.88 ln median PBM intensity, better of two orientations |
| B8 | 8.89 ln median PBM intensity, better of two orientations |
| B9 | 8.89 ln median PBM intensity, better of two orientations |
| B10 | 8.9 ln median PBM intensity, better of two orientations |
| B11 | 8.9 ln median PBM intensity, better of two orientations |
| B12 | 8.91 ln median PBM intensity, better of two orientations |
| B13 | 8.91 ln median PBM intensity, better of two orientations |
| B14 | 10.6 ln median PBM intensity, better of two orientations |
| B15 | 8.92 ln median PBM intensity, better of two orientations |
| B16 | 8.93 ln median PBM intensity, better of two orientations |

| Binder | binding signal |
| --- | --- |
| B17 | 8.93 ln median PBM intensity, better of two orientations |
| B18 | 8.93 ln median PBM intensity, better of two orientations |
| B19 | 8.93 ln median PBM intensity, better of two orientations |
| B20 | 8.94 ln median PBM intensity, better of two orientations |
| B21 | 8.94 ln median PBM intensity, better of two orientations |
| B22 | 10.6 ln median PBM intensity, better of two orientations |
| B23 | 8.95 ln median PBM intensity, better of two orientations |
| B24 | 8.95 ln median PBM intensity, better of two orientations |
| B25 | 8.96 ln median PBM intensity, better of two orientations |
| B26 | 8.96 ln median PBM intensity, better of two orientations |
| B27 | 8.96 ln median PBM intensity, better of two orientations |
| B28 | 8.96 ln median PBM intensity, better of two orientations |
| B29 | 8.97 ln median PBM intensity, better of two orientations |
| B30 | 8.97 ln median PBM intensity, better of two orientations |
| B31 | 8.98 ln median PBM intensity, better of two orientations |
| B32 | 10.6 ln median PBM intensity, better of two orientations |
